This passage reports amyloid nucleation score results from the supplement of paper PMC12042874.

± gives the uncertainty stated by the source.

This data set can be described thus: amyloid nucleation score (Sup35N fusion, yeast selection) (log enrichment); library NNK2; higher = more nucleation; inactive = no reads after selection. The method, boiled down: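 Output and input plasmid inserts were sequenced by Illumina after psi-negative yeast carrying Sup35N fused to peptides of 20 random codons had been induced 24 hours with 100 μM copper sulfate and grown 7 days at 30°C on medium lacking adenine and uracil. The nucleation score is the DiMSum log enrichment of output over input reads, centred on the mode score of non-aggregating sequences. Sequences with under 100 input reads were excluded.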
Substance GSLLDVTHRRKVLSKSMRGL had an amyloid nucleation score of 0.016 ± 0.35.

Regarding GSNCIEVFRGWVKFGMDCFW, the amyloid nucleation score entry was “inactive”. Consider GSPLLVNDQSDGMYTSEISF, for which the amyloid nucleation score was -1.32 ± 1.1. In the case of GSRARNLIASAQYYNG it was “inactive”; in that of GSRDHKPWTNRMWFTYTVIR, 0.028 ± 0.17; in that of GSRYN, 0.634 ± 0.54. To GSRYTEKIPGNRNRSRISL belongs -0.484 ± 0.35; to GSSGLCIRSSLIYFVCQTVW, 6.903 ± 0.054; to GSSVDGADMIGTLK, 1.46 ± 0.28.

Turning to GSTKFSRDERIAEGGNRGNK, the amyloid nucleation score was -0.007 ± 0.3.

In the case of GSVREQNFISRASLYAHGLS, the amyloid nucleation score is -0.095 ± 0.29.

In turn, GSWLLGMMVLQRILMNG displayed an amyloid nucleation score of 1.41 ± 0.44. Take GSYDLEGGLLHGLTTTSYNR: the amyloid nucleation score was -0.235 ± 0.55. GSYGQVHSWYVCDFPGWVLR gave an amyloid nucleation score of 0.438 ± 0.57.

The substance GSYSWSELSCMLFLFVGVSR yielded an amyloid nucleation score of 0.411 ± 0.53.

In turn, GSYTHARINSVIFNRYTLCS showed an amyloid nucleation score of 0.219 ± 1. Take GTFIGVNLN: the amyloid nucleation score entry was “inactive”.

Turning to GTQRAYGVKGKLETDLIRLK, the amyloid nucleation score was 8.554 ± 0.059. To GTRTISLKGPSGYYA belongs -0.689 ± 0.41; to GTSVIHISYFIYYPGDRVRR, 6.811 ± 0.052. In the case of GTTWRRINECCSRANKMAPV it was 0.029 ± 0.35. To GTVLAIRQLVSRCSGGVVGG belongs 1.28 ± 0.24; to GVAMNNCGIMDSREHGFGIR, 0.436 ± 0.36.

On to GVCVQGMFSVSYATILYKVA, for which the amyloid nucleation score was found to be 1.02 ± 0.2. GVFASSLLVFQLFFISPSNG displayed an amyloid nucleation score of 6.181 ± 0.028. To GVIVCTWPRPRDCS belongs 0.72 ± 0.58; to GVLGTLF, -1.13 ± 0.76.

Consider GVLQTARRFPVPEGN, for which the amyloid nucleation score was determined as 3.71 ± 0.12. In the case of GVLRQEFYKSANNSMKQWLF it was “inactive”; in that of GVNARQGSHDLVLRIVR, 7.39 ± 0.075; in that of GVRHGHTRSVGYFSVSYTSL, -1.05 ± 0.54. To GVRKFLHPTTGPYMYTRCWA belongs 0.44 ± 0.45. In the case of GVRLDFYGNHFLWPAVSRGR it was 3.63 ± 0.099. Take GVSGCANVSCMCADVYPIAP: the amyloid nucleation score amounted to 9.77 ± 0.045.

Turning to GVTVKGAVIFYRY, the amyloid nucleation score was 6.47 ± 0.074. Regarding GVTWTV, the amyloid nucleation score was -0.104 ± 0.25. For the substance GVYWILFIAWLRKVRWYSDV, the amyloid nucleation score was -0.144 ± 0.32. To GWASHGDNDSAMTGGSVWPG belongs 0.587 ± 0.62; to GWFGARRGMSIYRVHNWFVF, 5.738 ± 0.048; to GWGRLTY, 0.21 ± 0.74. To GWPHKVEFKVNDIFMIFSMM belongs 5.281 ± 0.034.

Substance GWQGTLVNCLEDYVCYVCHA registered an amyloid nucleation score of 5.34 ± 0.058.

Regarding GWVCRKRWVVLYMKICMIRR, the amyloid nucleation score is -0.249 ± 0.21. To GWVMVVPFPCMIVVVSAVGS belongs -0.152 ± 0.4. Regarding GWVNRIYTRQLECSSLEYFF, the amyloid nucleation score amounted to 3.17 ± 0.11. In the case of GYEASHSRFASSHLTPWGKR it was 1.74 ± 0.32; in that of GYFKRHLRM, -0.619 ± 1; in that of GYLVYFLCINRLACCSYLAT, 7.981 ± 0.065.

With GYNHFFTNDIISRGFPVSFK, the amyloid nucleation score entry is “inactive”. In the case of GYRYWRTACSALFRWSEMC it was 0.948 ± 0.26. With GYSGVLILWEVVICWYGVTG, the amyloid nucleation score was -0.313 ± 0.61. To GYSYTLRDRCESRLTLRSDV belongs 0.382 ± 0.37; to GYTRNHSLCFFFRMLYM, -1.29 ± 1. The substance GYVFASSVD returned an amyloid nucleation score of 0.791 ± 0.81.

For HAMWCFGFIVLGGGNDIRIW, the amyloid nucleation score was 8.219 ± 0.045. The substance HAPPNCVSSIHSRRVSSWHE gave an amyloid nucleation score of 0.333 ± 0.65. HCGCMEQA yielded an amyloid nucleation score of 0.486 ± 0.8. For the substance HCGYRVIELDLSRLASRSLR, the amyloid nucleation score is 0.195 ± 0.32. To HCHWWEGWRVEVYCLFPVTT belongs 7.852 ± 0.064; to HCNLSWSCTSGIALSRT, 4.54 ± 0.1. Regarding HCSWLYVLSYVSMSNICIGY, the amyloid nucleation score is -0.876 ± 0.76.

Take HCVLYCNMALFLQRSHRASC: the amyloid nucleation score amounted to 8.484 ± 0.039.

HCVMLHGGSPRHLNRRTDIC registered an amyloid nucleation score of 0.292 ± 0.27. On to HDMEYKVMDRIARM, for which the amyloid nucleation score was -0.501 ± 1.1.

With HEHLLPRT, the amyloid nucleation score came out at 0.02 ± 0.74.

In turn, HEPGFHYYCY returned an amyloid nucleation score of 2.43 ± 0.1. With HEQLW, the amyloid nucleation score is -0.243 ± 0.48.

Take HEVYNKGPT: the amyloid nucleation score entry was “inactive”. As to HFDFGFIGRDVIDVIDVRTN, the amyloid nucleation score was determined as 0.039 ± 0.46.

Turning to HFDSYNRNSMSSRPSVGILS, the amyloid nucleation score is -0.441 ± 1.1. To HFGAFMHCVCTRLKMS belongs -0.08 ± 0.61. As to HFMIVSLDGNHVMTTAAGVA, the amyloid nucleation score is 0.233 ± 0.43. To HFWVLFMLEETQSKFYLQST belongs -0.923 ± 0.64. To HGDMYRRQDVVSGSNE belongs 0.153 ± 0.49. With HGGQEAVHLRRCGGYDMSKA, the amyloid nucleation score was found to be 0.451 ± 0.42. To HGKCVFGLPVLLQWKLGDQT belongs 0.607 ± 0.57; to HGRRQGFAVTVGN, 0.355 ± 0.45; to HGTIFTIYVC, -0.875 ± 0.42. To HGVLVIVRAYVHVGEWVAQL belongs 1.96 ± 0.4; to HGYHSGTLIALYVDN, “inactive”.

Turning to HHFNLPMKKGRFVSLGFSLV, the amyloid nucleation score was -0.623 ± 1. The substance HHFTFQAAYFRNIPLESADE yielded an amyloid nucleation score of 0.906 ± 0.23. In the case of HHIRSFVETGGDTWWGRCSR it was 1.05 ± 0.21; in that of HHKLLGWFDVEKGMPVRLWA, 0.148 ± 0.43. HHLLVRMSMCC yielded an amyloid nucleation score of 4.49 ± 0.058. On to HIDVLMGCWMRIVTWSR, for which the amyloid nucleation score amounted to 2.17 ± 0.29.

Turning to HIEVSACTRFLILNIHLRII, the amyloid nucleation score was -1.46 ± 0.53. On to HIIASCTV, for which the amyloid nucleation score came to 1.18 ± 0.38.

Take HILMKN: the amyloid nucleation score was -0.013 ± 0.42. To HINFRSVITVV belongs -0.81 ± 0.44. To HISCMKLLSRLGYTCESLMW belongs -1.19 ± 0.55; to HIWTEVFIYVCSWRLYTTRV, -1.48 ± 0.64.

On to HKETSFDGHFAICWCYTCRH, for which the amyloid nucleation score stood at 5.216 ± 0.046. Regarding HKGVLEINSRVETLRSSAVN, the amyloid nucleation score is -0.545 ± 0.63. In the case of HKLFHLDSVQVYKQYGKEAI it was 1.16 ± 0.18; in that of HKVQLVWPFVYLVEVQRRSG, 2.85 ± 0.089; in that of HLDPRAPSVVWTMADGEEDA, 0.837 ± 0.22. In the case of HLFLRFADSSYWIS it was 1.24 ± 0.35; in that of HLGSDRGDAWVANVKPERWD, 1.03 ± 0.31; in that of HLHPGVYLKPFDGCGIINGI, 0.213 ± 0.8.

For the substance HLLHGPFMSLGG, the amyloid nucleation score was -0.973 ± 1. Consider HLLHVSGLDEIEMWTGDF, for which the amyloid nucleation score was -0.332 ± 0.39. The substance HLLRKDVPQAWT yielded an amyloid nucleation score of 3.29 ± 0.11. In the case of HLPGYSPIDCRKGLVLGRCT it was 0.027 ± 0.54. HLRYGGFAV gave an amyloid nucleation score of 0.085 ± 0.2.

On to HLTNLDFT, for which the amyloid nucleation score is -1.1 ± 0.44.

HMAVNTTALAKNLITG: the amyloid nucleation score is -0.401 ± 0.55.

Take HMNFRWLYMSIYVISLLEAL: the amyloid nucleation score result is “inactive”. To HMNYKYFWGGLFNRMLGQLN belongs “inactive”. In the case of HMSGLNGLGCLGTCLWLCSS it was “inactive”; in that of HNGIMFTCYLSP, 5.944 ± 0.053. In the case of HNLLSRSAQPRGPLRPVRRH it was 2.35 ± 0.16; in that of HNRYYGVIYVSLKICKLAFR, 6.476 ± 0.027.

For HNYAVS, the amyloid nucleation score was -0.711 ± 0.54.

On to HPGMDF, for which the amyloid nucleation score result is “inactive”. To HPHIFDLVVIYCQNGHV belongs 6.92 ± 0.075; to HPMQLLTSAQIKG, 0.863 ± 0.41; to HPSLVAGDWRFTGPLFCSLG, 4.02 ± 0.071. To HQDRERTRVPSIILFSLFTY belongs 1.71 ± 0.17; to HRDKLKVSPQITRSSFRRLS, 0.423 ± 0.26. Regarding HRKAYEPWFGCNMTYAGLGN, the amyloid nucleation score is -0.232 ± 0.65. In the case of HRRSFGSQMYL it was “inactive”.

In turn, HRSCVDTDVSDGWKGVESEA had an amyloid nucleation score of 0.599 ± 0.64. As for HRSLIIF, the amyloid nucleation score is 1.97 ± 0.19. The substance HRVSMKEGVEC registered an amyloid nucleation score of 0.256 ± 0.31.

Consider HRWVVWEYTGLAFYLAALEY, for which the amyloid nucleation score is -0.469 ± 0.36. To HSAIDMWS belongs -0.903 ± 0.44.

As to HSFGRKYFFTF, the amyloid nucleation score is -0.307 ± 0.55. For HSFHTVSTARRLKQDPYMR, the amyloid nucleation score is -0.387 ± 0.64. With HSFNPNTCYLKGIDDALLGF, the amyloid nucleation score was -0.838 ± 0.62. In the case of HSHPCDREFLPRMHAWLDSS it was -0.135 ± 0.33; in that of HSKGHILLTSNSNVFRLGRS, 0.166 ± 0.62; in that of HSLCLVVLGFML, 5.428 ± 0.04. In the case of HSLLSYMFSFQLTNMNCDLG it was -0.117 ± 0.56; in that of HSLVTDEASCLTDRGHVGQV, 1.22 ± 0.27; in that of HSRKFADVKSWLTTDKKRIR, 0.37 ± 0.48.

Turning to HSVLEYFVTLCSNFLLWWVL, the amyloid nucleation score was -0.192 ± 0.65. To HTDSLLWIPRVHFCVFF belongs “inactive”; to HTSSLF, -0.156 ± 0.3.
